Earlier results, collected in patent publication US9550786B2, “4-fluoropiperidine orexin receptor antagonists” (Merck Sharp & Dohme Corp., priority 2013, dated 2017).
Ends that are not written are not given here.

How the values were obtained:
OX1R = target: T1, OX1R (Homo sapiens, UniProt O43613)
T1 sequence (O43613 1-425): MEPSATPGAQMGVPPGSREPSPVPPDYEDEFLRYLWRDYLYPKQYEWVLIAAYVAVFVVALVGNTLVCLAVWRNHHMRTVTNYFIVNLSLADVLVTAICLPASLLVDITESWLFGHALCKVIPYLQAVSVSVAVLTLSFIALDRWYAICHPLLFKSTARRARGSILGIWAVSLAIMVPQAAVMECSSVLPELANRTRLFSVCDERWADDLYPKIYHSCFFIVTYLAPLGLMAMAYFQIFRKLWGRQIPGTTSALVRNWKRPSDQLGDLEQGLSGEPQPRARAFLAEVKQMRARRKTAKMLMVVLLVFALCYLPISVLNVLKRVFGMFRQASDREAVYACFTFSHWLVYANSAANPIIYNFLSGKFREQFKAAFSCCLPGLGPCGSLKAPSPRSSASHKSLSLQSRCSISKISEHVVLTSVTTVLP

OX2R = target: T2, OX2R (Homo sapiens, UniProt O43614)
T2 sequence (O43614 1-444): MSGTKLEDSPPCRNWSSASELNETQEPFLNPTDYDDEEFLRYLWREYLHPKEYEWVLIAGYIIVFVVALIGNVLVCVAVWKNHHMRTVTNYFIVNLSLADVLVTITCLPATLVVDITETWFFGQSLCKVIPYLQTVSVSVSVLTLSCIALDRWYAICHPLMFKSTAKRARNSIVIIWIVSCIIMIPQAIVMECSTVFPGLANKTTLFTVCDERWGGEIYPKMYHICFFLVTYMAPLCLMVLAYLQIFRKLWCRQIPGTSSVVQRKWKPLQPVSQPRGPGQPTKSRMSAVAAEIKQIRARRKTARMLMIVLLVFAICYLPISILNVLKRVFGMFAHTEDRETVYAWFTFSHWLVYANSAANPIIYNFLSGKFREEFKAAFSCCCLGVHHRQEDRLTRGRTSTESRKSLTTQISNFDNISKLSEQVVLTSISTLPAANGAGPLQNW

Substance	binding affinity toward OX1R (OX1R) [nM]	binding affinity toward OX2R (OX2R) [nM]
orexin A (QPLPDCCRQKTCSCRLYELLHGAGNHAAGILTL; not fully specified (residue 1, C-terminus, bridges); cysteine pairing not given here; UniProt O43612 34-66, looked up) [OX-A]	20	–
orexin B [OX-B]	420	36
